Measured values from paper PMC9876794 (2022).
Substitutions are numbered along the chain they refer to.

B1: D069 (antibody, V domains shown)
VH: QVQLVESGGGVVQPGGSLRLSCAASGFTFNIYGMHWVRQAPGKGLEWVAFIRYDGSNKYYADSVKGRFTISRDNSKNTLYLQMNSLRAEDTAVYYCAKSVGYYASGSYYFDYWGQGTLVTVSS
VL: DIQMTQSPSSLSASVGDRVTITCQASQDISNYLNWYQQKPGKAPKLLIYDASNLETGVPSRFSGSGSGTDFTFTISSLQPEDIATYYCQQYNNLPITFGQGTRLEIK
B2: D100 (antibody, V domains shown)
VH: QVQLVQSGAEVKKPGASVKVSCKASGYTFTSYGISWVRQAPGQGLEWMGWISAYNGNTNYAQKLQGRVTMTTDTSTSTAYMELRSLRSDDTAVYYCARVPDRRETPYYDFWSGYSIFDYWGQGTLVTVSS
VL: DIQMTQSPSSLSASVGDRVTITCRASQGISNYLAWFQQKPGKAPKSLIYAASSLQSGVPSKFSGSGSGTDFTLTISSLQPEDFATYYCQQYNSYPLTFGGGTKVEIK
B3: D044 (antibody, V domains shown)
VH: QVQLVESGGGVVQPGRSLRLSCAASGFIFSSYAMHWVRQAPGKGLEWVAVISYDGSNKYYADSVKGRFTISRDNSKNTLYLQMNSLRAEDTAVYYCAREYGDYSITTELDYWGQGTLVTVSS
VL: QSVLTQPPSVSGAPGQRVTISCTGSSSNIGAGYDVHWYQQLPGTAPKLLIYGNSNRPSGVPDRFSGSKSGTSASLAITGLQAEDEADYYCQSYDSSLSGYVFGTGTKVTVL
B4: C2726 (antibody, V domains shown)
VH: EVQLVQSGAEVKKPGESLKISCKGSGYSFTSYWIGWVRQMPGKGLEWMGIIYPGDSDTRYSPSFQGQVTISADKSISTAYLQWSSLKASDTAMYYCARRTAARTNGVCLDYWGQGTLVTVSS
VL: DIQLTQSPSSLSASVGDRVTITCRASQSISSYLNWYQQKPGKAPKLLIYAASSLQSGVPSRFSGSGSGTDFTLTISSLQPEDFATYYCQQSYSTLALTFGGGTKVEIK
B5: D165 (antibody, V domains shown)
VH: QVQLVQSGAEVKKPGASVKVSCKASGYTFSNYVINWVRQAPGQRPEWMGWINADNGHTVYSQKLQGRVTITTDTSASEAYMELSGLRSEDTAVYYCARGREDYYNNEPYGMDVWGQGTTVTVSS
VL: DIQMTQSPSSLSASVGDRVTITCRASQTISNYLNWYQQKPGQAPKLLIFAASSLQTGVPSRFSGSGSGTTFTLTISSLQPEDFATYYCQQSYGSLYTFGQGTKLDIK
B6: D058 (antibody, V domains shown)
VH: QVQLQESGPGLVKPSETLSLTCTVSGYSISSGYYWGWIRQPPGKGLEWIGSIYHSGSTYYNPSLKSRVTISVDTSKNQFSLKLSSVTAADTAVYYCARDFPLTLYGVLISDAFDIWGQGTMVTVSS
VL: SYELTQPPSVSVSPGQTARITCSADALPKQYAYWYQQKPGQAPVLVIYKDSERPSGIPERFSGSSSGTTVTLTISGVQAEDEADYYCQSADSSGKVFGGGTKLTVL
B7: C2695 (antibody, V domains shown)
VH: EVQLVESGGGLAQPGRSLRLSCAASGFKFDDYAMHWVRQAPGQGLEWVSGIDWNSGIIGYADSVMGRFTISRDNAKKSLYLQMNSLRAEDTALYYCAKSGGFGEFKWFDPWGQGTLVTVSS
VL: EIVMTQSPVTLSVSPGERATLSCRASQSVSGNLAWYQQKPGQAPRLLIYGASTRATGFPARFSGSGSGTEFTLTISRLQSEDFAVYYCQQYNKWPRTFGQGTKLEIK
B8: D005 (antibody, V domains shown)
VH: QVQLVQSGAEVKKPGASVKVSCKASGYTFTNYYIHWVRQAPGQGLEWMGIINPSAGSTTYAQKFQGRVTMTSDTSTSTVYMELSSLRSEDTAVYYCARAGELIPAARASFQHWGQGTLVTVSS
VL: DIQMTQSPSTLSASVGDRVTITCRASQSISTWLAWYQQKPGKAPKILIYKASSLESGVPSRFSGSGSGTEFTLTLSSLQPDDFATYYCQQYNSYSPTFGQGTKVEIK
B9: C2722 (antibody, V domains shown)
VH: EVQLVESGGGLVQPGGSLRLSCAASGFTFSSYSMNWVRQAPGKGLEWVSYISSSSSTIYYADSVKGRFTISRDNAKNSLYLQMNSLRAEDTAVYYCARDDGGGAYYDFWSGYYGDYWGQGTLVTVSS
VL: EIVLTQSPATLSLSPGERATLSCRASQSVSSYLAWYQQKPGQAPRLLIYDASNRATGIPARFSGSGSGTDFTLTISSLEPEDFAVYYCQQRSNWPPFTFGPGTKVDIK
B10: C2697 (antibody, V domains shown)
VH: EVQLVESGGGLVQPGGSLRLSCAASGFTFSSSYSMNWVRQAPGKGLEWVSYISSSSSTIYYADSVKGRFTISRDNAKNSLYLQMNSLRDEDTAVYYCARHYGDKTYYFYGMDVWGQGTTVTVSS
VL: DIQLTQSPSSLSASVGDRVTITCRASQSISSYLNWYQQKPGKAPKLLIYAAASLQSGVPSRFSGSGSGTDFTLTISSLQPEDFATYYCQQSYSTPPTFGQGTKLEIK
B11: D148 (antibody, V domains shown)
VH: QLQLQESGPGLVKPSETLSLTCTVSGGSISSSSYYWGWIRQPPGKGLEWIGSIYYSGSTYYNPSLKSRVTISVDTSKNQFSLKLSSVTAADTAVYYCARQTIYYDSSGSLEVEPMDVWGQGTTVTVSS
VL: not shown
B12: C2698 (antibody, V domains shown)
VH: B7 VH with A40V, A88T
VL: B7 VL with V9A, G31S
B13: C2710 (antibody, V domains shown)
VH: EVQLVESGGGLVQPGGSLRLSCAASGFTFSSYWMSWVRQAPGKGLEWVANINQDGSEIHYVDSVKGRFTISRDNAKNSLYLQMNSLRAEDTAVYYCAREGGPYDFWSGSNWFDPWGQGTLVTVSS
VL: QSALTQPASVSGSPGQSITISCTGTSSDVGGYNFVSWYQQRPGKAPKLMIYEVHNRPSGVSNHFSGSKSGNTASLTISGLQAEDEADYYCSSYTSNSLYVFGTGTKVTVL
B14: C2738 (antibody, V domains shown)
VH: QVQLQESGPGLVKPSETLSLTCTVSGGSISSYYWSWIRQPAGKGLEWIGRIYTSGSTNYNPSLKSRVTMSVDTSKNQFSLKLSSVTAADTAVYYCARDLWGGSRPFNWFDPWGQGTLVTVSS
VL: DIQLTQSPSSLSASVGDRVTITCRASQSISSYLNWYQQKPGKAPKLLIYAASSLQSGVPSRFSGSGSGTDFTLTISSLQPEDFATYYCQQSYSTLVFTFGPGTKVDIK
B15: C2715 (antibody)
chain 1: not shown
chain 2: DIQLTQSPSSVSASVGDRVTITCRASQGISSWLAWYQQKPGKAPKLLIYAASSLQSGVPSRFSGSGSGTDFTLTISSLQPEDFATYYCQQANSFPRTFGQGTKVEIK
B16: C2731 (antibody, V domains shown)
VH: QVQLQQWGAGLLKPSETLSRTCAVYGGSFSGYYWSWIRQSPGKGLEWIGEINHRGSTNYNPSLKSRVTISVDTSKNQLSLELRSVTAADTAVYYCARSPGWTTVTRPFDYWGQGALVTVSS
VL: EIVLTQSPGTLSLSPGERATLSCRASQSVSSNYLAWYQQKPGQAPRLLVYGASNRATGIPDRFSGSGSGTDFTLTISRLEPEDFAVFYCQQYSSSPVTFGQGTRLEIK
B17: D103 (antibody, V domains shown)
VH: QVQLVESGGGVVQPGRSLRLSCAASGFTFSSYGMHWVRQAPGKGLEWVAVISYDGSNKYYADSVKGRFTISRDNSKNTLYLQMNSLRAEDTAVYYCAKGGYYDSSAYYGPLDYWGQGTLVTVSS
VL: SYVLTQPPSVSVAPGKTARITCGGNNIGSKSVHWYQQKPGQAPVLVVYDDSDRPSGIPERFSGSNSGNTATLTISRVEAGDEADYYCQVWDSSSDHWVFGGGTKLTVL
B18: D173 (antibody, V domains shown)
VH: EVQLVQSGAEVKKPGESLRISCKGSGYSFTSYWISWVRQMPGKGLEWMGRIDPSDSYTNYSPSFQGHVTISADKSISTAYLQWSSLKASDTAMYYCASQGLVPAAIEIWDYWGQGTLVTVSS
VL: EIVLTQSPATLSLSPGERATLSCRASQSVSSYLAWYQQKPGQAPRLLIYDASNRATGIPARFSGSGSGTDFTLTISSLEPEDFAVYYCQQHSNWPLTFGGGTKVEIK
B19: D108 (antibody, V domains shown)
VH: QVQLVQSGAEVKKPGASVKVSCKASGYTFTSSDINWVRQATGQGLEWVGWMNPNSGNTGYAQKFQGRVTMTRNTSISTAYMELSSLRSEDTAVYYCASGPYWSGYYYYFDNWGQGTLVTVSS
VL: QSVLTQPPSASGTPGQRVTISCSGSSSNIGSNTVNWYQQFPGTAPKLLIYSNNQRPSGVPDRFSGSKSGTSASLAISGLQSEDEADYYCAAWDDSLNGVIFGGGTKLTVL
B20: D038 (antibody, V domains shown)
VH: EVQLVQSGAEVKKPGESLKISCKGSGYSFTSYWIAWVRQMPGKGLEWMGIIYPGDSDTRYSPSFQGQVTISADKSISTAYLQWSSLKASDTAMYYCARQGYSYGYVDYWGQGTLVTVSS
VL: NFMLTQPHSVSESPGKTVTISCTRSSGSIASNYVQWYQQRPGSAPTTVIYEDNQRPSGVPDRFSGSIDSSSNSASLTISGLKTEDEADYYCQSYDSSNWVFGGGTKLTVL
B21: D053 (antibody, V domains shown)
VH: EVQLVESGGGLVKPGGSLRLSCAASGFTFSNAWMSWVRQAPGKGLEWIGRIKSNTDGGTIDYAAPVKGRFTISRDDSKNTLYLQMNSLKTEDTAVYYCTTDGAFFVVADPFDYWGQGTLVTVSS
VL: DIQMTQSPSSLSASVGDRVTITCRASQSMTNYLNWYQQKPGKAPELLIYGVSSLQSGVPSRFSGSGSGTDFTLTISSLQPEDFATYYCQQSYRTPRTFGQGTKVEIK
B22: C2717 (antibody, V domains shown)
VH: EVQLVESGGGLVQPGGSLRLSCAASGFTVSSNYMSWVRQAPGKGLEWVSVIYSGGSTYYADSVKGRFTISRDNSKNTLYLQMNSLRAEDTAVYYCARELYSSSSYFDYWGQGTLVTVSS
VL: QSVLTQPPSVSGAPGQRVTISCTGSSSNIGAGYDVHWYQQLPGTAPKLLIYGNSNRPSGVPDRFSGSKSGTSASLAITGLQAEDEADYYCQSYDSSLSGSGVFGGGTKLTVL
B23: C2701 (antibody, V domains shown)
VH: EVQLVESGGGLVQPGGSLRLSCAASGFTVSSNYMSWVRQAPGKGLEWVSVIYSGGSTYYADSVKGRFTISRHNSKNTLYLQMNSLRAEDTAVYYCARDYGDLFFDYWGQGTTVTVSS
VL: not shown
B24: D126 (antibody, V domains shown)
VH: QVQLVQSGAEVKKPGASVKVSCKASGYTFTSYGISWVRQAPGQGLEWMGWISAYNGNTNYAQKLQGRVTMTTDTSTSTAYMELRSLRSDDTAVYYCARDDTSGWYTGDAFDIWGQGTMVTVSS
VL: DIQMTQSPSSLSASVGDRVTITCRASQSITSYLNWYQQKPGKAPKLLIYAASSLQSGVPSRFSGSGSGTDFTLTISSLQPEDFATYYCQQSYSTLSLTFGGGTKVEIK

Biological target: T1, SARS-CoV-2 spike RBD (WT) (Severe acute respiratory syndrome …, UniProt P0DTC2)
Test: BLI

Row | Binder | Kd [nM]
1 | B1 | 140
2 | B2 | 530
3 | B3 | 56.9
4 | B4 | 133
5 | B5 | 117
6 | B6 | 24.1
7 | B7 | 133
8 | B8 | 49.8
9 | B9 | 43.3
10 | B10 | 101
11 | B11 | 6.46
12 | B12 | 152
13 | B13 | 11.9
14 | B14 | 10.2
15 | B15 | 63.4
16 | B16 | 143
17 | B17 | 2700
18 | B18 | 60.3
19 | B19 | 6840
20 | B20 | 306
21 | B21 | 2420
22 | B22 | 153
23 | B23 | 88.4
24 | B24 | 16.7

Biological target: T1, SARS-CoV-2 spike RBD (WT)
Test: ELISA
Parameters: unit not given here

Row | Binder | binding score
25 | B1 | 252
26 | B2 | > 10000
27 | B3 | 266
28 | B4 | 3440
29 | B5 | 1370
30 | B6 | 84.8
31 | B7 | 45.1
32 | B8 | 96
33 | B9 | 177
34 | B10 | 2060
35 | B11 | 29
36 | B12 | 79.2
37 | B13 | 9.12
38 | B14 | 21.1
39 | B15 | 189
40 | B16 | 4400
41 | B17 | > 10000
42 | B18 | 181
43 | B19 | 6120
44 | B20 | > 10000
45 | B21 | 3050
46 | B22 | 124
47 | B23 | 170
48 | B24 | 973
